What was measured:
Type in all cases: in vivo, C57BL/6 mice
LSK cells and HSCs [1] = assay: IL-7 and AMD3100 combination, HSC mobilization into peripheral blood; details: IL-7 0.5 mg/kg day 0; AMD3100 5 mg/kg 1 hour prior to analysis; day 3
Method: As described herein, AMD3100 (CXCR4 antagonist) is another regimen that is commonly used to promote the migration of HSCs from the bone marrow into the peripheral blood. Cashen et al., Future Oncol 3(1): 19-27 (February 2007). To determine whether IL-7 can also enhance the HSC mobilization effects of AMD3100, C57BL/6 animals received a single subcutaneous administration of the following: (i) buffer alone, (ii) IL-7 alone (0.5 mg/kg), (iii) AMD3100 (5 mg/kg), and (iv) IL-7 (0.5 mg/kg) in combination with AMD3100 (5 mg/kg). […] At day 3 post initial administration, the number of both LSK cells and HSCs were again assessed in the peripheral blood using flow cytometry.

LSK cells and HSCs [2] = assay: IL-7 and G-CSF combination, HSC mobilization into peripheral blood; details: IL-7 0.5 mg/kg or G-CSF 5 μg s.c., day 3
Method: To determine whether the combined treatment of IL-7 and G-CSF can further improve the mobilization of HSCs into the peripheral blood, C57BL/6 animals received a single subcutaneous administration of one of the following: (i) buffer alone, (ii) IL-7 alone (0.5 mg/kg), (iii) pegylated recombinant human G-CSF alone (5 μg), and (iv) IL-7 (0.5 mg/kg) in combination with G-CSF (5 μg). Then, at day 3 post administration, both the number of LSK cells and HSCs in the peripheral blood were assessed using flow cytometry.

LSK cells and HSCs [3] = assay: Comparison of IL-7 with G-CSF and G-CSF + AMD3100 on mobilization of HSCs to peripheral blood; details: PEG-rhG-CSF 5 μg s.c. day 3; rhG-CSF 6.25 μg/day days 0-3
Method: As described herein, granulocyte colony stimulating factor (G-CSF) is a standard regimen used in the clinic to induce HSC mobilization. Therefore, the potency of IL-7 was compared to that of G-CSF on inducing the mobilization of HSCs to peripheral blood was assessed. Briefly, C57BL/6 mice were treated with one of the following: (i) control buffer (“control”), (ii) IL-7 protein (“IL-7”) (2.5 mg/kg; subcutaneous), (iii) long-acting pegylated recombinant human G-CSF (“PEG-rhG-CSF”) (5 μg; subcutaneous), or (iv) non-pegylated recombinant human G-CSF (“rhG-CSF”) (twice a day (6.25 μg/day) at days 0, 1, 2, and 3 (i.e., total dose of 25 μg/mouse); subcutaneous). In animals treated with the IL-7 protein or PEG-rhG-CSF, the number of LSK cells and HSCs was determined in the peripheral blood at day 3 post administration. In animals treated with rhG-CSF, the number of LSK cells and HSCs in the peripheral blood was assessed within 6-8 hours after last rhG-CSF administration.
In this regard, the potency of IL-7 protein alone to the G-CSF+AMD3100 combinational regimen was next compared. Briefly, normal C57BL/6 mice were administered with one of the following: (i) control buffer, (ii) IL-7 protein alone, (iii) pegylated recombinant human G-CSF (“G-CSF”), or (iv) G-CSF in combination with AMD3100. Then, the number of HSCs in the peripheral blood was assessed at day 3 post administration.

Molecule	amount of LSK cells and HSCs in peripheral blood vs control (LSK cells and HSCs [1])	amount of LSK cells in peripheral blood vs buffer alone (LSK cells and HSCs [2])	efficacy of mobilization, the two types of G-CSF compared (LSK cells and HSCs [3])
c1cc(CN2CCCNCCNCCCNCC2)ccc1CN1CCCNCCNCCCNCC1 [AMD3100]	comparable to that of the control animals		
PEG-rhG-CSF: long-acting pegylated recombinant human G-CSF (protein, UniProt P09919 31-207, looked up, PEG) Granulocyte …: TPLGPASSLPQSFLLKCLEQVRKIQGDGAALQEKLVSECATYKLCHPEELVLLGHSLGIPWAPLSSCPSQALQLAGCLSQLHSGLFLYQGLLQALEGISPELGPTLDTLQLDVADFATTIWQQMEELGMAPALQPTQGAMPAFASAFQRRAGGVLVASHLQSFLEVSYRVLRHLAQP		increased amount	comparable efficacy of mobilization
rhG-CSF: non-pegylated recombinant human G-CSF (protein, UniProt P09919 31-207, looked up) Granulocyte …: TPLGPASSLPQSFLLKCLEQVRKIQGDGAALQEKLVSECATYKLCHPEELVLLGHSLGIPWAPLSSCPSQALQLAGCLSQLHSGLFLYQGLLQALEGISPELGPTLDTLQLDVADFATTIWQQMEELGMAPALQPTQGAMPAFASAFQRRAGGVLVASHLQSFLEVSYRVLRHLAQP			comparable efficacy of mobilization
